Key:
4H683-bN = target: T1, 4H683-bN; assay: two-hybrid library CCNG1;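 note: natural log of median RNA to DNA barcode read ratio; higher means stronger binding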
T1 chain: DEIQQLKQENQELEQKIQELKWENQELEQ

4H3427-bN = target: T2, 4H3427-bN; assay: two-hybrid library CCNG1;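 note: natural log of median RNA to DNA barcode read ratio; higher means stronger binding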
T2 chain: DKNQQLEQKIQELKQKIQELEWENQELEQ

4H2702-bN = target: T3, 4H2702-bN; assay: two-hybrid library CCNG1;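 note: natural log of median RNA to DNA barcode read ratio; higher means stronger binding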
T3 chain: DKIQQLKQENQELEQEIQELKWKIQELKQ

4H575-bN = target: T4, 4H575-bN; assay: two-hybrid library CCNG1;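 note: natural log of median RNA to DNA barcode read ratio; higher means stronger binding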
T4 chain: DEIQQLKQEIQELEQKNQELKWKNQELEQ

4H2673-bN = target: T5, 4H2673-bN; assay: two-hybrid library CCNG1;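 note: natural log of median RNA to DNA barcode read ratio; higher means stronger binding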
T5 chain: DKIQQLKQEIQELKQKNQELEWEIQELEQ

4H3112-bN = target: T6, 4H3112-bN; assay: two-hybrid library CCNG1;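 note: natural log of median RNA to DNA barcode read ratio; higher means stronger binding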
T6 chain: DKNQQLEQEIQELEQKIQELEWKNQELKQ

4H780-bN = target: T7, 4H780-bN; assay: two-hybrid library CCNG1
T7 chain: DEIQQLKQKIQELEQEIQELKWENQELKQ

4H4073-bN = target: T8, 4H4073-bN; assay: two-hybrid library CCNG1
T8 chain: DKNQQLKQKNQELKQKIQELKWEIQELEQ

4H3057-bN = target: T9, 4H3057-bN; assay: two-hybrid library CCNG1
T9 chain: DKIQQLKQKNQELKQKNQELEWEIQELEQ

4H953-bN = target: T10, 4H953-bN; assay: two-hybrid library CCNG1
T10 chain: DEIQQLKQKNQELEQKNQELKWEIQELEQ

4H3010-bN = target: T11, 4H3010-bN; assay: two-hybrid library CCNG1
T11 chain: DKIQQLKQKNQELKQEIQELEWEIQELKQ

4H797-bN = target: T12, 4H797-bN; assay: two-hybrid library CCNG1
T12 chain: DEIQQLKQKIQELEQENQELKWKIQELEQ

4H3926-bN = target: T13, 4H3926-bN; assay: two-hybrid library CCNG1
T13 chain: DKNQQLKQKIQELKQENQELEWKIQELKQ

4H855-bN = target: T14, 4H855-bN; assay: two-hybrid library CCNG1
T14 chain: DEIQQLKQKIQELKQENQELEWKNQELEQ

4H3381-bH = target: T15, 4H3381-bH; assay: two-hybrid library CCNG1
T15 chain: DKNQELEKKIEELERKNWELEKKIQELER

4H968-bN = target: T16, 4H968-bN; assay: two-hybrid library CCNG1
T16 chain: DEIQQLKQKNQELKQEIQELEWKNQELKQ

4H346-bN = target: T17, 4H346-bN; assay: two-hybrid library CCNG1
T17 chain: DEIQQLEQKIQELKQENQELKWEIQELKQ

4H457-bN = target: T18, 4H457-bN; assay: two-hybrid library CCNG1
T18 chain: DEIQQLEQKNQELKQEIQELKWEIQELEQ

4H918-bN = target: T19, 4H918-bN; assay: two-hybrid library CCNG1
T19 chain: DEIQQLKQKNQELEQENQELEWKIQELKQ

4H754-bN = target: T20, 4H754-bN; assay: two-hybrid library CCNG1
T20 chain: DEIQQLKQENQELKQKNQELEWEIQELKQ

P8mSN = target: T21, P8mSN; assay: two-hybrid library CCNG1
T21 chain: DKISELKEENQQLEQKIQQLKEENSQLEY

P6mSN = target: T22, P6mSN; assay: two-hybrid library CCNG1
T22 chain: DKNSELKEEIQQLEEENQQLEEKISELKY

P9mSN = target: T23, P9mSN; assay: two-hybrid library CCNG1
T23 chain: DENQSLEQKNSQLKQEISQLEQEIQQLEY

P7mSN = target: T24, P7mSN; assay: two-hybrid library CCNG1
T24 chain: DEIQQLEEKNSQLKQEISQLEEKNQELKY

4H2948-AA = target: T25, 4H2948-AA; assay: two-hybrid library CCmax; conditions: mean of both orientations
T25 chain: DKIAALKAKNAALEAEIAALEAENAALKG

4H656-AA = target: T26, 4H656-AA; assay: two-hybrid library CCmax; conditions: mean of both orientations
T26 chain: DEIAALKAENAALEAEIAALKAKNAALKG

4H3446-AA = target: T27, 4H3446-AA; assay: two-hybrid library CCmax; conditions: mean of both orientations
T27 chain: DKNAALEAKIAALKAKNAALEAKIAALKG

4H478-AA = target: T28, 4H478-AA; assay: two-hybrid library CCmax; conditions: mean of both orientations
T28 chain: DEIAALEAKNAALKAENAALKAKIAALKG

4H3939-AA = target: T29, 4H3939-AA; assay: two-hybrid library CCmax; conditions: mean of both orientations
T29 chain: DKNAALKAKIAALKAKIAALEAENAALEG

4H3029-AA = target: T30, 4H3029-AA; assay: two-hybrid library CCmax; conditions: mean of both orientations
T30 chain: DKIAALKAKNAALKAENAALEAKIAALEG

4H2742-AA = target: T31, 4H2742-AA; assay: two-hybrid library CCmax; conditions: mean of both orientations
T31 chain: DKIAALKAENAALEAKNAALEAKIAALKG

4H2283-AA = target: T32, 4H2283-AA; assay: two-hybrid library CCmax; conditions: mean of both orientations
T32 chain: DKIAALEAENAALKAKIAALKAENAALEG

4H971-AA = target: T33, 4H971-AA; assay: two-hybrid library CCmax; conditions: mean of both orientations
T33 chain: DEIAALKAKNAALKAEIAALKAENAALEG

4H2713-AA = target: T34, 4H2713-AA; assay: two-hybrid library CCmax; conditions: mean of both orientations
T34 chain: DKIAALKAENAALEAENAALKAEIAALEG

4H428-AA = target: T35, 4H428-AA; assay: two-hybrid library CCmax; conditions: mean of both orientations
T35 chain: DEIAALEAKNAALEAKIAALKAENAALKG

4H189-AA = target: T36, 4H189-AA; assay: two-hybrid library CCmax; conditions: mean of both orientations
T36 chain: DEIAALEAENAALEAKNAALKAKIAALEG

4H2991-AA = target: T37, 4H2991-AA; assay: two-hybrid library CCmax; conditions: mean of both orientations
T37 chain: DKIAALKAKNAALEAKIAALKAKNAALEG

4H1809-AA = target: T38, 4H1809-AA; assay: two-hybrid library CCmax
T38 chain: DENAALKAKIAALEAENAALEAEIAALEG

4H391-AA = target: T39, 4H391-AA; assay: two-hybrid library CCmax; conditions: mean of both orientations
T39 chain: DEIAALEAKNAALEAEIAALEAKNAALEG

4H3121-AA = target: T40, 4H3121-AA; assay: two-hybrid library CCmax; conditions: mean of both orientations
T40 chain: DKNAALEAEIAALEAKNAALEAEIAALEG

4H497-AA = target: T41, 4H497-AA; assay: two-hybrid library CCmax; conditions: mean of both orientations
T41 chain: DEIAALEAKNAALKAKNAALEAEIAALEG

4H3591-AA = target: T42, 4H3591-AA; assay: two-hybrid library CCmax; conditions: mean of both orientations
T42 chain: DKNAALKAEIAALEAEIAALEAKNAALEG

4H3628-AA = target: T43, 4H3628-AA; assay: two-hybrid library CCmax; conditions: mean of both orientations
T43 chain: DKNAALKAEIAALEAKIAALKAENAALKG

4H3417-AA = target: T44, 4H3417-AA; assay: two-hybrid library CCmax; conditions: mean of both orientations
T44 chain: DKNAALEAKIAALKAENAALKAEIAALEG

4H3066-AA = target: T45, 4H3066-AA; assay: two-hybrid library CCmax; conditions: mean of both orientations
T45 chain: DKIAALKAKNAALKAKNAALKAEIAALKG

4H3709-AA = target: T46, 4H3709-AA; assay: two-hybrid library CCmax; conditions: mean of both orientations
T46 chain: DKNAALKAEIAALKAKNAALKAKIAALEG

4H3666-AA = target: T47, 4H3666-AA; assay: two-hybrid library CCmax; conditions: mean of both orientations
T47 chain: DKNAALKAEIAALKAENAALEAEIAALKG

4H2248-AA = target: T48, 4H2248-AA; assay: two-hybrid library CCmax; conditions: mean of both orientations
T48 chain: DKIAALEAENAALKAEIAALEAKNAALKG

4H3102-AA = target: T49, 4H3102-AA; assay: two-hybrid library CCmax; conditions: mean of both orientations
T49 chain: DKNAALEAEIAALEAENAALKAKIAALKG

4H675-AA = target: T50, 4H675-AA; assay: two-hybrid library CCmax; conditions: mean of both orientations
T50 chain: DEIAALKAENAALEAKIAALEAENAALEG

4H3920-AA = target: T51, 4H3920-AA; assay: two-hybrid library CCmax; conditions: mean of both orientations
T51 chain: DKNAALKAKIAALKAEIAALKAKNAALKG

4H1854-AA = target: T52, 4H1854-AA; assay: two-hybrid library CCmax; conditions: mean of both orientations
T52 chain: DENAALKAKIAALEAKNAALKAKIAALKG

DKIQQLKQEIQELKQKNQELEWEIQELEQ [4H2673-bN]
interaction score (4H683-bN): -0.954
interaction score (4H3427-bN): -1.55
interaction score (4H2702-bN): -0.755
interaction score (4H575-bN): -1.53
interaction score (4H2673-bN): 0.657
interaction score (4H3112-bN): -0.658
interaction score (4H780-bN): -1.43
interaction score (4H4073-bN): -1.63
interaction score (4H3057-bN): -0.47
interaction score (4H953-bN): -1.21
interaction score (4H3010-bN): 1.39
interaction score (4H797-bN): -0.839
interaction score (4H3926-bN): -0.806
interaction score (4H855-bN): -1.2
interaction score (4H3381-bH): -0.468
interaction score (4H968-bN): -0.538
interaction score (4H346-bN): -0.543
interaction score (4H457-bN): -1.88
interaction score (4H918-bN): -1.57
interaction score (4H754-bN): -1.07

DKNSELKEEIQQLEEENQQLEEKISELKY [P6mSN]
interaction score (P8mSN): -1.19
interaction score (P6mSN): 0.276
interaction score (P9mSN): -0.248
interaction score (P7mSN): -0.951

DENAALKAKIAALEAENAALEAEIAALEG [4H1809-AA]
interaction score (4H2948-AA): -1.16
interaction score (4H656-AA): -1.1
interaction score (4H3446-AA): 1.42
interaction score (4H478-AA): 0.898
interaction score (4H3939-AA): -1.45
interaction score (4H3029-AA): -2.28
interaction score (4H2742-AA): -1.29
interaction score (4H2283-AA): 1.16
interaction score (4H971-AA): 0.362
interaction score (4H2713-AA): -1.63
interaction score (4H428-AA): -0.837
interaction score (4H189-AA): -0.354
interaction score (4H2991-AA): -0.235
interaction score (4H1809-AA): -0.349
interaction score (4H391-AA): -1.47
interaction score (4H3121-AA): -1.18
interaction score (4H497-AA): -1.51
interaction score (4H3591-AA): -1.94
interaction score (4H3628-AA): -1.29
interaction score (4H3417-AA): -0.579
interaction score (4H3066-AA): 0.194
interaction score (4H3709-AA): 1.51
interaction score (4H3666-AA): -1.2
interaction score (4H2248-AA): -0.294
interaction score (4H3102-AA): 2.27
interaction score (4H675-AA): -1.74
interaction score (4H3920-AA): -0.86
interaction score (4H1854-AA): 2.32

Reference: article PMC10397247
